The supplement of paper PMC10065799, “High-throughput profiling of sequence recognition by tyrosine kinases and SH2 domains using bacterial peptide display” (eLife, 2023)

Assays:
c-Abl (mouse) = assay: phosphorylation enrichment, bacterial display (enrichment ratio); higher = better substrate or ligand; peptides without Tyr show the background
Jak2 = Jak2 (UniProt O60674); assay: as above
EPHB2 = EPHB2 (UniProt P29323); assay: as above
FGFR3 = FGFR3 (UniProt P22607); assay: as above
Fer (mouse) = assay: as above
Fyn = Fyn (UniProt P06241); assay: as above
Chain of Fyn (P06241 whole entry, looked up): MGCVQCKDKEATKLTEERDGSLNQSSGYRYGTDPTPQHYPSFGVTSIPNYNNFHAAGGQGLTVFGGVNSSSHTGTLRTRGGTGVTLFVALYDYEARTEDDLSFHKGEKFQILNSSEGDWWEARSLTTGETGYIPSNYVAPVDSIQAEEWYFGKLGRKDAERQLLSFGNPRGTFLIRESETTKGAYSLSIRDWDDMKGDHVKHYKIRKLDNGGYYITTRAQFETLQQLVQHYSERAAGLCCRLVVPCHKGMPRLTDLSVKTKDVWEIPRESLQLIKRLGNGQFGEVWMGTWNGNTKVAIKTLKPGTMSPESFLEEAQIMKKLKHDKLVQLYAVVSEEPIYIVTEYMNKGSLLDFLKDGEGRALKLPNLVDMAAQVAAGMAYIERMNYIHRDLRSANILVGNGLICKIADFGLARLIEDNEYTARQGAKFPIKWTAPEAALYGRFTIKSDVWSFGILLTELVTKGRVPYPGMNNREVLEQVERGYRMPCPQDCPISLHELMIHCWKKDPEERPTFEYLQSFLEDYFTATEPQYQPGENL

Hck = Hck (UniProt P08631); assay: as above
Chain of Hck (P08631 whole entry, looked up): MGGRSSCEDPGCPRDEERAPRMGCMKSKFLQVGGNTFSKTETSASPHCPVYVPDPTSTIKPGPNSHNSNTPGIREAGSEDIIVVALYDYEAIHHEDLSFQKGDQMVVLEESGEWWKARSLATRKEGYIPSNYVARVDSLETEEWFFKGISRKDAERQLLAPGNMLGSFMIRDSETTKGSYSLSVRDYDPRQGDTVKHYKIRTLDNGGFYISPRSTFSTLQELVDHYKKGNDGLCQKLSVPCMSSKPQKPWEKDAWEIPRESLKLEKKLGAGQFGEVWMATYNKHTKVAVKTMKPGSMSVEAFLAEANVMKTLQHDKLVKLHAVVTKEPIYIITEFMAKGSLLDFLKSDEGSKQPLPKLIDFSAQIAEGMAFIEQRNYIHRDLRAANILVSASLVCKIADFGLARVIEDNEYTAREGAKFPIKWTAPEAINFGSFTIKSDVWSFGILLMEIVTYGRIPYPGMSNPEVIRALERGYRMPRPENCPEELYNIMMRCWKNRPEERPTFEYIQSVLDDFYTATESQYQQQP

c-Src = assay: as above
MERTK = MERTK (UniProt Q12866); assay: as above
Chain of MERTK (Q12866 whole entry, looked up): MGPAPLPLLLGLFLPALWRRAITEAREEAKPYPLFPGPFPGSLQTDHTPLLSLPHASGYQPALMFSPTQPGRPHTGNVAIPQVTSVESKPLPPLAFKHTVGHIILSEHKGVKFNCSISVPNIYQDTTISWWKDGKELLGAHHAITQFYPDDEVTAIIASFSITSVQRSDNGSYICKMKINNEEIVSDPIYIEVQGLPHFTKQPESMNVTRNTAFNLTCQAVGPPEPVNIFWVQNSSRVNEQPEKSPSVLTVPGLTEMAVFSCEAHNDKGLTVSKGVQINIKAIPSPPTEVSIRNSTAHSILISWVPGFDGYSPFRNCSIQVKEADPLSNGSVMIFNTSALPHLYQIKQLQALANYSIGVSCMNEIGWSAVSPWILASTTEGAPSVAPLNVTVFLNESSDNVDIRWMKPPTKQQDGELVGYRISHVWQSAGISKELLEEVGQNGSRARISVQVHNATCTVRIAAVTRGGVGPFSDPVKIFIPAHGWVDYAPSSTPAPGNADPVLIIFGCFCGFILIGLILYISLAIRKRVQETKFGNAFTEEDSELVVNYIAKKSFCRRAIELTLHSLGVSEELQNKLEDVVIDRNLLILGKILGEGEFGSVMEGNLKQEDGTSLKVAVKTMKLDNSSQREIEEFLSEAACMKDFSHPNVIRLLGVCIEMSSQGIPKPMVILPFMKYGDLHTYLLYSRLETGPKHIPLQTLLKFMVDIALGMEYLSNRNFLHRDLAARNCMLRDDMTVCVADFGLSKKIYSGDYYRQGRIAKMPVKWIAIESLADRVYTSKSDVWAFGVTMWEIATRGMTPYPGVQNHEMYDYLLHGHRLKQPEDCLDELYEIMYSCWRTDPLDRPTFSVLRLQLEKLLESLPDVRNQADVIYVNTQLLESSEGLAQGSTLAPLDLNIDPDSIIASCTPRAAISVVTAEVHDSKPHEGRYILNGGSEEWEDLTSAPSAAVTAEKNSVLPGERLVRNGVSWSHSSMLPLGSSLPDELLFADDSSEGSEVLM

FGFR1 = FGFR1 (UniProt P11362); assay: as above
Chain of FGFR1 (P11362 whole entry, looked up): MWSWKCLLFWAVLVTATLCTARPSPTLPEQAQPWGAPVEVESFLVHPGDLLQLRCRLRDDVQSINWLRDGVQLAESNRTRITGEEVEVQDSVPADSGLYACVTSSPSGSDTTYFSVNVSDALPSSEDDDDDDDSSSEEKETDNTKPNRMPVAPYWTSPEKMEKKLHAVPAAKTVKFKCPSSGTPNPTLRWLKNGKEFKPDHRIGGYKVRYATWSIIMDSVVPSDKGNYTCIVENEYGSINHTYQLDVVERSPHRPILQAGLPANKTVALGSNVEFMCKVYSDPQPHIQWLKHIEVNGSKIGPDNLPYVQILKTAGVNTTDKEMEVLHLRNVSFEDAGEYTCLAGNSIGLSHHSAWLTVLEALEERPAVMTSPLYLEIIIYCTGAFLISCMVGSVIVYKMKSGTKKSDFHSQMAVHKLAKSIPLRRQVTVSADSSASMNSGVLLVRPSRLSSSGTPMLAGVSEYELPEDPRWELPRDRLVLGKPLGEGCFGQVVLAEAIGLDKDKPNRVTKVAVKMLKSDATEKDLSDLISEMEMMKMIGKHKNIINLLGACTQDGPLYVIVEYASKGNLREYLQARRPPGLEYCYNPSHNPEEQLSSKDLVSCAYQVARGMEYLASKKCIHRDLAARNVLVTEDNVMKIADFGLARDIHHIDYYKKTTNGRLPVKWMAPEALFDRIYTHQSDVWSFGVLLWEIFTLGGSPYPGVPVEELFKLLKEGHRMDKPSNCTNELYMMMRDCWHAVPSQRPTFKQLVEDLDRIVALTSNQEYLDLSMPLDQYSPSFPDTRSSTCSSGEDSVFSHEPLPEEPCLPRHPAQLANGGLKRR

AncSZ = assay: as above
Fes = Fes (UniProt P07332); assay: as above
Chain of Fes (P07332 whole entry, looked up): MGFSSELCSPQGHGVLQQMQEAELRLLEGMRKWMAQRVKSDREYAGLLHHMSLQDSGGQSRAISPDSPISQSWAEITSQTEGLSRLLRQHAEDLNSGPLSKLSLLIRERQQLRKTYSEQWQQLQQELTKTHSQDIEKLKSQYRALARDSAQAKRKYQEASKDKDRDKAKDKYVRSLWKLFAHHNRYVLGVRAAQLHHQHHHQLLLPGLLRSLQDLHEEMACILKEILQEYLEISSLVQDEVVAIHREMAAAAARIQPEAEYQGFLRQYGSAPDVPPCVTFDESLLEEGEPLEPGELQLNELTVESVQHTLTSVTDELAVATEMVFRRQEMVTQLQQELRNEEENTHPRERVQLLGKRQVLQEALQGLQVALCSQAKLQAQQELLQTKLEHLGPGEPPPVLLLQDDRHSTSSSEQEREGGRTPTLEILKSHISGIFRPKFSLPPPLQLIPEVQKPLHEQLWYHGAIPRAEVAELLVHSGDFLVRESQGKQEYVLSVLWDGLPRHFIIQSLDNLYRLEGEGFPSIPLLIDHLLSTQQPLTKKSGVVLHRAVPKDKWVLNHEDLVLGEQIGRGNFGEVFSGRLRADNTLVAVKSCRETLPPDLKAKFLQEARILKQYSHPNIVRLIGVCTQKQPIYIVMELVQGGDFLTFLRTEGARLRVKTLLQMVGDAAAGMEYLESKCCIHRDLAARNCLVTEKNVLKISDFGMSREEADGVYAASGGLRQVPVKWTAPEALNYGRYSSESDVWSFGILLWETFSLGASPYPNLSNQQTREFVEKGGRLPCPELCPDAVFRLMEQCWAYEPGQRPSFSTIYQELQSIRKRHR

EPHB1 = EPHB1 (UniProt P54762); assay: as above
c-Src SH2 = assay: SH2 binding enrichment of the phosphorylated peptide, bacterial display (enrichment ratio); higher = better substrate or ligand; peptides without Tyr show the background
Grb2 SH2 = Grb2 SH2 (UniProt P62993); assay: as above
Chain of Grb2 SH2 (P62993 whole entry, looked up): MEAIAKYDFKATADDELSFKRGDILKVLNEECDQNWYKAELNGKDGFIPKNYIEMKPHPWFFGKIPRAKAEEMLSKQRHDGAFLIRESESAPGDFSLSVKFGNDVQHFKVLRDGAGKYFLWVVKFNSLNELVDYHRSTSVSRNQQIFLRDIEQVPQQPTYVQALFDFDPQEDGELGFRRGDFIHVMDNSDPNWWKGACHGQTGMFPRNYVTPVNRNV

SHP2-C SH2 = assay: as above
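Wherever SH2 binding enrichment of the phosphorylated peptide, bacterial display is given: peptide library displayed on the E. coli surface as eCPX fusions, selected cells deep-sequenced, score is each peptide's frequency after selection divided by its frequency in the input.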
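Wherever phosphorylation enrichment, bacterial display is given: 11-residue human phosphosite peptides and single-mutation variants displayed on the E. coli surface, counted by deep sequencing, each peptide's frequency after selection divided by its frequency in the unselected input library; frequency after pTyr selection over input frequency; kinase dosed for 20-30% of maximal phosphorylation in three min.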

Chain of FGFR3 (P22607 whole entry, looked up): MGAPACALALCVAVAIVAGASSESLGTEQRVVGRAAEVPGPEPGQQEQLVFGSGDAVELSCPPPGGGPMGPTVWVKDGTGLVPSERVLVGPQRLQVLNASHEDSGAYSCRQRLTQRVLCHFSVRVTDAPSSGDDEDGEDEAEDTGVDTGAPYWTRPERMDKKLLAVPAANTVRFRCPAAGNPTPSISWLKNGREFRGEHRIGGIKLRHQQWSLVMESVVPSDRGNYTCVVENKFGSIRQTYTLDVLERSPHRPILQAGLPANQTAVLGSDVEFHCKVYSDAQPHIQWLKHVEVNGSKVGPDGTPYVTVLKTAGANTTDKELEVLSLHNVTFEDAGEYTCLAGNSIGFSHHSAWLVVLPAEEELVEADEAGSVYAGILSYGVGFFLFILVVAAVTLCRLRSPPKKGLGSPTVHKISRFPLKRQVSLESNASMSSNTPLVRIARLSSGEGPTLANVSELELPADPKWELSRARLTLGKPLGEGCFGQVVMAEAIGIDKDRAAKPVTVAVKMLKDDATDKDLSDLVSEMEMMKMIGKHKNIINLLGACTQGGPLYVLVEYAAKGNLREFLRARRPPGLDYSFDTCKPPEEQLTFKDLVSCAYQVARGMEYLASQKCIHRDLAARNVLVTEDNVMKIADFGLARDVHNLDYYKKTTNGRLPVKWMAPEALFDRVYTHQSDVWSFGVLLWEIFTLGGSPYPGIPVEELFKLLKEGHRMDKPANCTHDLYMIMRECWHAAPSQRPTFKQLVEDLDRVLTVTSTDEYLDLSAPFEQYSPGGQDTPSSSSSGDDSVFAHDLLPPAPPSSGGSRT

Sequence | phosphorylation enrichment (c-Abl (mouse)) | phosphorylation enrichment (Jak2) | phosphorylation enrichment (EPHB2) | phosphorylation enrichment (FGFR3) | phosphorylation enrichment (Fer (mouse)) | phosphorylation enrichment (Fyn) | phosphorylation enrichment (Hck) | phosphorylation enrichment (c-Src) | phosphorylation enrichment (MERTK) | phosphorylation enrichment (FGFR1) | phosphorylation enrichment (AncSZ) | phosphorylation enrichment (Fes) | phosphorylation enrichment (EPHB1) | SH2 binding enrichment (c-Src SH2) | SH2 binding enrichment (Grb2 SH2) | SH2 binding enrichment (SHP2-C SH2)
TKEPKYGGAGS [KIAA1210_Y1615_E1616G] | 0.462 | 0.416 | 0.44 | 0.548 | 0.457 | 0.459 | 0.361 | 0.409 | 0.384 | 0.405 | 0.5 | 0.55 | 0.431 | 0.487 | 1.08 | 0.983
YDKEYYSVHNK [MET_Y1235] | 0.684 | 1.01 | 0.428 | 2.95 | 0.425 | 0.455 | 0.922 | 0.881 | 0.441 | 4.29 | 1.36 | 0.754 | 0.542 | 0.478 | 0.759 | 0.399
AQMAMYFWEMS [TRPM4_Y577_G582S] | 1.14 | 1.61 | 1.05 | 2.88 | 0.9 | 1.15 | 1.18 | 2.52 | 2.5 | 3.42 | 1.86 | 1.73 | 1.09 | 0.852 | 1.15 | 1.08
IHETTYNSIMK [ACTA1_Y281] | 0.572 | 0.477 | 0.338 | 0.436 | 0.414 | 0.746 | 1.38 | 1.04 | 0.3 | 0.384 | 0.475 | 0.711 | 0.332 | 1.93 | 0.862 | 1.68
APTSGYQEFVH [IL4R_Y575] | 0.524 | 0.611 | 0.535 | 0.51 | 0.401 | 0.545 | 0.503 | 0.419 | 0.426 | 0.539 | 0.741 | 0.764 | 0.36 | 2.99 | 0.826 | 0.668
FSGDFYRIQGR [DDR2_Y741_YF] | 0.578 | 0.944 | 0.439 | 0.594 | 0.393 | 0.488 | 0.449 | 0.551 | 0.421 | 0.509 | 0.723 | 0.817 | 0.543 | 0.501 | 0.786 | 0.594
WQQQSYLDSGS [CTNNB1_Y30_I35S] | 0.56 | 0.581 | 0.528 | 0.536 | 0.675 | 0.423 | 0.45 | 0.363 | 0.397 | 0.561 | 0.781 | 0.741 | 0.436 | 0.481 | 0.733 | 0.582
DTCPPYVLSQV [GJB4_Y237_G242V] | 0.668 | 0.969 | 0.635 | 0.776 | 1.2 | 0.573 | 0.606 | 0.606 | 0.432 | 0.475 | 1.01 | 1.11 | 0.685 | 0.624 | 0.77 | 0.797
LIDGFYRLTAD [JAK2_Y373_YF] | 0.816 | 1.29 | 0.883 | 0.991 | 0.523 | 0.698 | 0.807 | 0.86 | 0.741 | 0.754 | 1.29 | 1.51 | 0.747 | 0.503 | 0.918 | 0.759
MFNPFYGLFEF [NEDD4L_Y680_YF] | 0.775 | 0.852 | 0.549 | 0.794 | 5.44 | 4.38 | 2.35 | 5.41 | 5.83 | 0.602 | 0.998 | 1.04 | 0.513 | 1.17 | 1.56 | 1.5
TDKLFYIYTPG [SLC27A4_Y243_S247P] | 0.673 | 1.68 | 0.502 | 0.853 | 0.494 | 0.422 | 0.498 | 0.592 | 1.46 | 0.728 | 1.25 | 1.34 | 0.683 | 0.383 | 0.684 | 1.12
KQINDYVEKGT [SERPINA1_Y184] | 0.546 | 0.72 | 0.431 | 0.58 | 0.536 | 0.44 | 0.433 | 0.478 | 0.374 | 0.402 | 0.733 | 0.905 | 0.491 | 0.528 | 0.726 | 0.585
TEALFYTDDTA [ADPRS_Y75_YF] | 0.787 | 1.17 | 0.614 | 0.754 | 0.557 | 0.568 | 0.602 | 0.634 | 0.541 | 0.535 | 1.26 | 1.44 | 0.643 | 0.615 | 0.739 | 0.675
GIADDYDKKKP [EIF1_Y54_L59P] | 0.648 | 0.909 | 0.502 | 0.636 | 0.389 | 0.418 | 0.381 | 0.436 | 0.378 | 0.501 | 1.01 | 0.998 | 0.425 | 0.895 | 0.76 | 0.614
TDKLFYIFTPG [SLC27A4_Y243_S247P_YF] | 0.873 | 1.65 | 0.583 | 1.11 | 0.544 | 0.392 | 0.607 | 0.556 | 1.72 | 0.91 | 1.36 | 1.49 | 0.776 | 0.401 | 0.787 | 0.604
KEELAYLKKNH [KRT14_Y248] | 0.528 | 0.512 | 0.422 | 0.515 | 0.375 | 0.395 | 0.541 | 0.35 | 0.333 | 0.451 | 0.597 | 0.742 | 0.413 | 0.482 | 0.912 | 0.761
ISDNAYQYMLT [MYH7_Y162] | 0.704 | 1.17 | 0.496 | 2.15 | 9.28 | 0.553 | 0.577 | 0.975 | 2.15 | 3.44 | 1.51 | 1.23 | 0.659 | 1.13 | 0.812 | 0.873

Sequence | phosphorylation enrichment (c-Abl (mouse)) | phosphorylation enrichment (Jak2) | phosphorylation enrichment (EPHB2) | phosphorylation enrichment (FGFR3) | phosphorylation enrichment (Fer (mouse)) | phosphorylation enrichment (Fyn) | phosphorylation enrichment (Hck) | phosphorylation enrichment (c-Src) | phosphorylation enrichment (MERTK) | phosphorylation enrichment (FGFR1) | phosphorylation enrichment (AncSZ) | phosphorylation enrichment (Fes) | phosphorylation enrichment (EPHB1) | SH2 binding enrichment (c-Src SH2) | SH2 binding enrichment (Grb2 SH2) | SH2 binding enrichment (SHP2-C SH2)
SVVVHYEPPEV [TP53_Y220_P219H] | 1.72 | 0.758 | 0.616 | 0.647 | 1.86 | 0.484 | 0.537 | 0.485 | 0.71 | 0.525 | 1.15 | 1.02 | 0.699 | 1.68 | 0.849 | 0.757
NDFGNYSNQSS [HNRNPA1_Y318_N319S] | 0.458 | 0.546 | 1.92 | 0.49 | 0.43 | 0.416 | 0.451 | 0.463 | 0.501 | 0.461 | 1.02 | 0.619 | 6.89 | 0.421 | 0.795 | 0.625
VIKDKYPQARF [APTX_Y209_K211Q_YF] | 0.47 | 0.553 | 0.326 | 0.469 | 0.328 | 0.35 | 0.308 | 0.44 | 0.406 | 0.367 | 0.453 | 0.579 | 0.436 | 0.562 | 1.06 | 1.02
ASLLPYFPAIM [IPO4_Y518] | 0.626 | 0.802 | 0.576 | 0.694 | 0.532 | 0.544 | 0.484 | 0.457 | 0.364 | 0.537 | 0.782 | 0.938 | 0.479 | 0.672 | 1.15 | 0.806
ATLDVYNPFET [SCAMP3_Y41] | 0.838 | 1.37 | 0.537 | 0.652 | 0.581 | 2.49 | 2.15 | 3.24 | 0.556 | 0.52 | 1.09 | 1.42 | 0.629 | 0.536 | 0.872 | 0.524
SVTCTYSPALK [TP53_Y126_N131K] | 0.839 | 0.866 | 0.567 | 0.602 | 0.353 | 0.467 | 0.498 | 0.557 | 0.405 | 0.407 | 0.97 | 1.02 | 0.407 | 0.523 | 0.697 | 0.518
DWWQEYVLNES [TGM1_Y267_R264W] | 0.777 | 1.55 | 0.817 | 0.97 | 0.678 | 0.563 | 0.515 | 4.1 | 0.403 | 1.61 | 2.11 | 1.51 | 0.831 | 0.63 | 0.993 | 0.588
CEHFSYFGMKA [SLC15A2_Y60_R57H_YF] | 0.605 | 3.82 | 0.516 | 0.902 | 0.452 | 0.379 | 0.444 | 0.673 | 0.469 | 1.61 | 0.879 | 0.845 | 0.555 | 0.604 | 0.801 | 0.545
LVPPRYVRSEI [PKP2_Y194_A195V] | 0.58 | 0.685 | 0.645 | 0.605 | 0.522 | 0.431 | 0.321 | 0.555 | 0.588 | 0.469 | 0.612 | 0.94 | 0.538 | 0.506 | 0.788 | 0.632
PTTKTYLPHFD [HBA1_Y43_F44L] | 0.307 | 0.456 | 0.489 | 0.58 | 0.386 | 0.622 | 0.389 | 0.458 | 0.494 | 0.508 | 0.839 | 0.77 | 0.362 | 0.483 | 0.901 | 0.756
ACEVLYNIAFM [NCF2_Y125] | 2.57 | 1.11 | 0.859 | 1.49 | 5.68 | 1.97 | 2.45 | 2.17 | 2.03 | 0.976 | 2.01 | 1.53 | 0.983 | 0.434 | 0.768 | 0.592
GKSDPYHATTG [GJA1_Y247_S251T] | 0.476 | 0.41 | 0.254 | 0.409 | 0.38 | 0.345 | 0.413 | 0.361 | 0.319 | 0.374 | 0.396 | 0.506 | 0.287 | 0.416 | 0.771 | 0.778
QRMGTYGVRAA [ICAM2_Y260] | 0.637 | 0.983 | 0.657 | 0.702 | 0.852 | 2.06 | 3.44 | 1.58 | 0.618 | 0.754 | 1.26 | 1.14 | 0.685 | 0.724 | 1 | 0.881
PMWHPYKADVT [TP53TG5_Y255_V257A] | 0.94 | 0.911 | 0.572 | 0.6 | 0.588 | 0.565 | 0.615 | 0.756 | 0.428 | 0.309 | 0.851 | 1.12 | 0.657 | 0.484 | 0.791 | 1.04
LFLACYFIGGG [UBD_Y161_C162F] | 1.03 | 1.35 | 0.612 | 1.05 | 0.533 | 0.502 | 0.55 | 0.647 | 0.45 | 0.453 | 1.16 | 1.77 | 0.773 | 0.793 | 0.861 | 0.855
LTFPDYLPCSV [SAG_Y129] | 1.13 | 2.91 | 0.601 | 3.07 | 0.715 | 0.427 | 0.479 | 0.535 | 0.463 | 3.74 | 2.34 | 1.44 | 0.879 | 0.472 | 0.748 | 0.739
